From US8691772B2, “HSP60, HSP60 peptides and T cell vaccines for immunomodulation” (Yeda Research and Development Co. Ltd., priority 2005, dated 2014)

What was measured:
human T cells = test: T-cell migration assay towards SDF-1α, human T cells; type: cell-based; conditions: 1 hr pre-incubation
Description: Human cells. […] Human umbilical cord vein endothelial cells (HUVEC) were isolated from umbilical cord veins and cultured as described (Ponomaryov et al., 2000). Primary cultures were serially passaged, and passages 2 and 3 were taken for experiments.
(§1) T-cell migration assay. Migration of ^51[Cr]-labeled human and mouse T cells through FN or endothelial cells to recombinant human SDF-1α was examined in 48-well Transwell chemotaxis apparatus (5-μm pore filters, 6.5-mm diameter; Corning, N.Y.), as previously described (Zanin-Zhorov et al., 2003b). For transendothelial migration assays, 2×10^4 cells of HUVEC were layered on the filters and grown in 10% FCS M199 for 2 days before the performance of each assay. Then, HUVEC were stimulated with TNF-α (50 ng/ml) for 24 hr and washed.

BALB/c lymph node-cells = test: T-cell migration assay towards SDF-1α, mouse lymph node cells; type: cell-based, BALB/c mice; conditions: in vitro, HSP60 1 hr
Description: (§2) Mice and mouse T cells. Female C57BL/6J were obtained from Harlan Olac (Bicester, U.K.). TLR2-knockout mice on the C57BL/6J background were kindly provided by Dr. S. Akira (Osaka University, Osaka, Japan). CD3^+ T cells were isolated by negative selection with anti-mouse antibody cocktail (Pan T cell kit; Miltenyi Biotec; CITY Germany). The labeled cells were then passed through separation columns (MidiMACS columns, Miltenyi Biotec). The purified cells (>97% T cells) were untreated or treated with HSP60 as described. Similarly, T cells were purified from the lymph nodes of BALB/c mice (females, 1.5 months of age).
as §1

SOCS3 [1] = test: SOCS3 expression in human T cells (immunoblot); type: cell-based
SOCS3 [2] = test: SOCS3 expression in mouse lymphocytes / T cells (immunoblot); type: cell-based; conditions: for SOCS3 expression: 1 ng/ml, 1 hr
Description: as §2
(§3) Western blotting of T-cell lysates. T cells were incubated (24 hr, 37° C.) in starvation medium (RPMI medium without serum). Aliquots (5×10^6/sample) of the starved cells were preincubated (for various intervals) with different concentrations of HSP60 prior to exposure to SDF-1α (100 ng/ml, 10 min, 37° C., tissue culture conditions). These reactions were terminated by freezing the plates (−70° C., 10 min). The plates were thawed, and the cells solubilized by incubating (60 min, 4° C.) in lysis buffer [EDTA (0.5 mM), NaCL (150 mM), NaF (10 nM), Tris pH 7.5 (25 mM), Triton X-100 (1%), PMSF (200 pg/ml), and phosphatase inhibitor cocktail (1%)]. Lysates were cleared by centrifugation (30 min, 14×10^3 rpm, 4° C.), and the resulting supernatants analyzed for protein content. Sample buffer was added, the samples were boiled, and equal amounts of proteins were separated by 10% SDS-PAGE and transferred to nitrocellulose membranes. […] Phosphorylation levels of the 3-5 independent experiments were estimated by densitometry, and an average percentage of phosphorylation±SD was calculated as OD of pERK/tERK, or pPyk2/tPyk2, or pAKT/tAKT, pMLC/tMLC, or pSTAT3/tSTAT3×100%.

STAT3 = STAT3 phosphorylation in human T cells; type: cell-based
Procedure: as §3

CD4^+CD25^+ T cells = test: Co-culture of treated CD4+CD25+ T cells with CD4+CD25- T cells; type: cell-based, human
NF-κB = test: Nuclear translocation of NF-κB in T cells; type: cell-based, human
Procedure: (§4) Western blot analysis of T-cell nuclear extracts. Purified T cells (5×10^6) were preincubated with different concentrations of HSP60 for the indicated periods of time (37° C. in a 7% CO2, humidified atmosphere). […] T cells were lysed in 10 mM HEPES, 1.5 mM MgCl2, 1 mM dithiothreitol (DTT), 1 mM PMSF, 0.5% Nonidet P-40. The lysates were incubated on ice for 10 min and centrifuged at 2000 rpm for 10 min at 4° C. The supernatants (cytoplasmic extracts) were transferred and the pellet (nuclei) was suspended in buffer containing 30 mM HEPES, 450 mM NaCl, 25% Glycerol, 0.5 mM EDTA, 6 mM DTT, 12 mM MgCl2 1 mM PMSF, 10 μg/ml leupeptin, 10 μg/ml pepstatin, 1% phosphatase inhibitor cocktail, and the suspension was incubated on ice for 30 min. The lysates were cleared by centrifugation (30 min, 14×10^3 rpm, 4° C.), and the resulting supernatants analyzed for protein content. For NFATp analysis nuclear extracts were prepared with a NE-PER Nuclear and Cytoplasmic Extraction reagent (Pierce, Rockford, Ill.) according to the manufacturer's protocol. Sample buffer was then added and, after boiling, the samples, containing equal amounts of proteins, were separated on 10% SDS-PAGE gel and transferred to nitrocellulose membranes. The membranes were blocked with TBST buffer containing low-fat milk (5%), Tris pH 7.5 (20 mM), NaCl (135 mM) and Tween 20 (0.1%), and probed with the following mAb in the same buffer: anti-NF-κb (diluted 1:1000), anti-total (t) ERK (diluted 1:20,000), anti-NFATp (diluted 1:500), anti T-bet (diluted 1:1000), anti-GATA-3 (diluted 1:1000), anti-Lamin B (diluted 1:1000). Immunoreactive protein bands were visualized using labeled secondary antibodies and the enhanced ECL system.

T-bet and GATA-3 = T-bet and GATA-3 expression in human T cells; type: cell-based
Procedure: as §4

[3] = CD4+CD25+ treated 1 ng/ml 2 hr, co-cultured with CD4+CD25- on anti-CD3, 24 hr
[4] = 1 ng/ml and 1 μg/ml, no anti-CD3

B1: HSP60: recombinant human heat shock protein 60 (StressGen Biotechnologies) (protein)
chain: AKDVKFGADARALMLQGVDLLADAVAVTMGPKGRTVIIEQSWGSPKVTKDGVTVAKSIDLKDKYKNIGAKLVQDVANNTNEEAGDGTTTATVLARSIAKEGFEKISKGANPVEIRRGVMLAVDAVIAELKKQSKPVTTPEEIAQVATISANGDKEIGNIISDAMKKVGRKGVITVKDGKTLNDELEIIEGMKFDRGYISPYFINTSKGQKCEFQDAYVLLSEKKISSIQSIVPALEIANAHRKPLVIIAEDVDGEALSTLVLNRLKVGLQVVAVKAPGFGDNRKNQLKDMAIATGGAVFGEEGLTLNLEDVQPHDLGKVGEVIVTKDDAMLLKGKGDKAQIEKRIQEIIEQLDVTTSEYEKEKLNERLAKLSDGVAVLKVGGTSDVEVNEKKDRVTDALNATRAAVEEGIVLGGGCALLRCIPALDSLTPANEDQKIGIEIIKRTLKIPAMTIAKNAGVEGSLIVEKIMQSSSEVGYDAMAGDFVNMVEKGIIDPTKVVRTALLDAAGVASLLTTAEVVVTEIPKEEKDPGMGAMGGMGGGMGGGMF
B1 was tested, and the “SDF-1α-induced T-cell chemotaxis through TNF-α-activated endothelial cells” value (human T cells) was “significant inhibition of T-cell chemotaxis toward SDF-1α”, the “SDF-1α-induced T-cell chemotaxis through fibronectin” value (human T cells; various concentrations) was “significant inhibition of T-cell chemotaxis toward SDF-1α” and the “migration of mouse lymph node cells towards SDF-1α” value (BALB/c lymph node-cells) was “inhibited migration of mouse lymph node cells towards SDF-1α”. The “time at which SOCS3 activation was apparent” value (SOCS3 [1]; 1 ng/ml) was 30 min, the “time of peak SOCS3 activation” value (SOCS3 [1]; 1 ng/ml) was 1 to 2 h and the “HSP60 concentrations of maximal SOCS3 activation” value (SOCS3 [1]; biphasic dose-response curve) was 1 ng/mL and 1000 ng/mL. For the same molecule, the “expression of SOCS3” value (SOCS3 [1]; human T cells, 1 hr, 0-1000 ng/ml) was “activated the expression of SOCS3 (P<0.05)”, the “expression of SOCS3” value (SOCS3 [2]; BALB/c lymph node cells) was “induced the expression of SOCS3 in BALB/c lymph node cells” and the SOCS3 expression (SOCS3 [2]; T cells from TLR2-knockout mice) was “SOCS3 expression remained at the low levels of untreated cells”. For the same molecule, the SOCS3 expression (SOCS3 [2]; wild type C57BL/6J-derived T cells) was “induced SOCS3 expression at levels similar to those induced by HSP60 in human T cells”, the “phosphorylation of STAT3” value (STAT3) was “induced phosphorylation of STAT3” and the “anti-CD3-induced proliferation of CD4+CD25- T cells in co-culture” value (CD4^+CD25^+ T cells; 24 hours) was “did not suppress anti-CD3-induced proliferation”. For the same molecule, the “anti-CD3-induced proliferation of CD4+CD25- T cells in co-culture” value (CD4^+CD25^+ T cells; 96 hours) was “significant inhibition of proliferation”, the “IFN-γ and TNF-α secretion in co-culture” value (CD4^+CD25^+ T cells; [3]) was “significantly enhanced the down-regulation of secretion of IFN-γ and TNF-α secretion” and the “IL-10 and TGF-β secretion in co-culture” value (CD4^+CD25^+ T cells; [3]) was “up-regulated the secretion of IL-10 and TGF-β in the co-cultures”. The “inhibition of IFN-γ and TNF-α secretion of CD4+CD25- T cells by supernatants of treated Tregs” value (CD4^+CD25^+ T cells; HSP60 1 ng/ml, 2 hr, supernatants after 24 hr on anti-CD3) was “about 30%”, the “time at which NF-κB inhibition was apparent” value (NF-κB; 1 ng/ml) was 60 min and the “time of peak NF-κB inhibition” value (NF-κB; 1 ng/ml) was 120 to 240 min. The “nuclear translocation of NF-κB without anti-CD3” value (NF-κB; HSP60 alone) was “did not affect the nuclear translocation of NF-κB”, the “concentrations of maximal effects on NF-κB” value (NF-κB; P<0.01) was 1 ng/ml or 1 μg/ml and the “T-bet expression induced by anti-CD3” value (T-bet and GATA-3; 1 ng/ml and 1 μg/ml, 1 hr pre-treatment) was “significantly (P<0.05) inhibited the T-bet expression induced by the anti-CD3”. For the same molecule, the “protein level of GATA-3” value (T-bet and GATA-3; [4]) was “significantly (P<0.01) up-regulated the protein level of GATA-3”, the “protein level of T-bet” value (T-bet and GATA-3; [4]) was “but not of T-bet” and the “GATA-3 expression with anti-CD3” value (T-bet and GATA-3; 1 hr pre-incubation) was “significantly up-regulated the expression level of GATA-3”.
